These results are taken from PMC10191858, “DNA segment capture by Smc5/6 holocomplexes” (Nature Structural & Molecular Biology, 2023).

The target of the test is T1, Smc5(G1054C), Smc5 with the engineered cysteine of the Smc5–Nse4 interface (S. cerevisiae, UniProt Q08204 1-1093, G1054C).
T1 construct: Smc5, S. cerevisiae, subunit of the Smc5/6 hexamer; engineered cysteine G1054C for BMOE cross-linking to Nse4; Stood in the assay as a subunit of the purified hexamer (Smc5, Smc6, Nse1-4)
T1 sequence (looked up): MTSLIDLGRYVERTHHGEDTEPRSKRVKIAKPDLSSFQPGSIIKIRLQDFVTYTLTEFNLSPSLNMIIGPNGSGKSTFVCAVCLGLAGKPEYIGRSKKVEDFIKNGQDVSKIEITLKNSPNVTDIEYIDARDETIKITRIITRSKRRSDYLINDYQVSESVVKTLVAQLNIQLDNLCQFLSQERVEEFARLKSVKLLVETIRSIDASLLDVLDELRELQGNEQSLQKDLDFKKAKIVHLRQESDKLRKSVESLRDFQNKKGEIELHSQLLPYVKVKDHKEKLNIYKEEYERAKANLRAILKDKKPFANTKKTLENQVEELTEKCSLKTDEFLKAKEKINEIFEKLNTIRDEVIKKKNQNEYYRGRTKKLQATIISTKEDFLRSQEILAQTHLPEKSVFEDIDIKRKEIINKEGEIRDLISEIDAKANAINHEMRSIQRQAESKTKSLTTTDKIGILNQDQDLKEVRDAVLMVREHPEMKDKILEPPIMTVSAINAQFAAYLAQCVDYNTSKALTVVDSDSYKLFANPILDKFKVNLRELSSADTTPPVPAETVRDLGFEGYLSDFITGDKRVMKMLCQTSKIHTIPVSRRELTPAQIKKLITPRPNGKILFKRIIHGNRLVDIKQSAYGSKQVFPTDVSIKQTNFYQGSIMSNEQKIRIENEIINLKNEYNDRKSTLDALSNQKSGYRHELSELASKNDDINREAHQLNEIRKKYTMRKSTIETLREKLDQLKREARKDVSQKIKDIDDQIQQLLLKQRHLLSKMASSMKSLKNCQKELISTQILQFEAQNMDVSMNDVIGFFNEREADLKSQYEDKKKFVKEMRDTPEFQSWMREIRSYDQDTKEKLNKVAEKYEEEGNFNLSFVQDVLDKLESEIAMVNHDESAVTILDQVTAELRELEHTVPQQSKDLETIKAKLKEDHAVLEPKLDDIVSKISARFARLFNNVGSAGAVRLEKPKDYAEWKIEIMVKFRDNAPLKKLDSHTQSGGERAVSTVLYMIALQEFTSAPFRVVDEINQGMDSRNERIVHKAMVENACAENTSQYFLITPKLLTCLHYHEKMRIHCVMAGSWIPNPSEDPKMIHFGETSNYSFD
Put plainly: cross-linking; site-specific BMOE cross-linking (1 mM, 45 s, stopped with 10 mM DTT) of engineered cysteine pairs in purified Smc5/6 hexamers at 0.5 uM; 10 mM Hepes-KOH pH 7.5, 150 mM KOAc, 2 mM MgCl2, 20% glycerol, RT; with or without Nse5/6 dimer (0.625 uM), 2 mM ATP, 5 nM plasmid DNA (25 kbp); SDS-PAGE and Coomassie staining, bands quantified. As to conditions: both partners purified.

B1: Nse5/6 dimer (loader) (complex, S. cerevisiae)
chain 1: MDGALINSVLYVSPRNGAHYFVELTEKHLLAFEMLNSMCLLENYDHVLLFLECQFGKSHNLAVIPFDIILVLFTLSTLSEYYKEPILRANDPYNTSRETLSRRALKLLQKYLAILKEFDSEQYNLYDLELLRCQFFLAIDTLTPKKQKWGFDRFRRTKSESGVTYRQNASVDPELDQAKTFKNPYRSYISCLEQRNTILGNRLLNLKLNEPGEFINMILWTLSNSLQESTPLFLSSHEIWMPLLEILIDLFSCRQDYFIQHEVAQNVSKSLFVQRLSESPLAVFFESLNTRNFANRFSEYVFLNCDYKLPSDNYATPVHPVYNGENTIVDTYIPTIKCSPLYKSQKSLALRRKLIGSCFKLLLRVPDGHRLITPRIVADDVIQGISRTLASFNDILQFKKFFMTENLSQESYFIPLLAEGTLSEILKDTQECVVILTLVENLSDGVSFCNEVIGLVKSKCFAFTEQCSQASYEEAVLNIEKCDVCLLVLLRYLLHLIGTEAILDAKEQLEMLHAIEKNDSGRRQWAKALNLGNDPPLLYPIVSQMFGVHDKSVIIE
chain 2: MGSVNSSPNEEFETVPDSQISGFDSPLIPTSVGSYFRDDDDDEKVHPNFISDPENDSLNSDEEFSSLENSDLNLSGAKAESGDDFDPILKRTIISKRKAPSNNEDEEIVKTPRKLVNYVPLKIFNLGDSFDDTITTTVAKLQDLKKEILDSPRSNKSIVITSNTVAKSELQKSIKFSGSIPEIYLDVVTKETISDKYKDWHFISKNCHYEQLMDLEMKDTAYSFLFGSSRSQGKVPEFVHLKCPSITNLLVLFGVNQEKCNSLKINYEKKENSRYDNLCTIFPVNKMLKFLMYFYSDDDNDDVREFFLKAFICLILDRKVFNAMESDHRLCFKVLELFNEAHFINSYFEIVDKNDFFLHYRLLQIFPHLQSALLRRRFSEKQGRTETIQQNIIKEFNEFFDCKNYKNLLYFILTMYGSKFIPFGPKCQVTEYFKDCILDISNETTNDVEISILKGILNLFSKIR
notes: Nse5, S. cerevisiae; a native cysteine of it cross-links off-target to Smc5(G1054C); Nse6, S. cerevisiae; also called Nse5/6 subcomplex; Nse5/6 complex
In the case of B1, the binding result is “binds”.
